Data reported in the supplement of paper PMC12764529.
± gives the half width of the 95% confidence interval.

Assays:
[1] = folding stability dG unfold (combined trypsin and chymotrypsin); higher = more stable
In short: (§1)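 Designed mini-proteins (under 80 residues, no cysteine) in a PA-tagged cDNA display construct were digested with trypsin and chymotrypsin. Each protease was used at 11 concentrations (threefold dilutions) plus a no-protease condition, followed by sequencing. K50 was inferred by Bayesian fitting of sequencing counts, and unfolding free energy was derived against a sequence-predicted unfolded-state K50 and a shared folded-state K50, per protease or combined. Only designs with AlphaFold2 dimer inter-PAE above 15 were kept.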

[2] = folding stability dG unfold from trypsin proteolysis; higher = more stable
In short: as §1

Sequence	folding stability dG unfold [1] [kcal/mol]	folding stability dG unfold [2] [kcal/mol]
SAGGSAGGSAGGMEGFTAVTFTTTTSSNGTRTTTVTTTTPDGTVTTTTTTTPVTPPPNTASAGGSAGGSAGG [r11_998_JUSTAS]	0.155 ± 0.14	0.503 ± 0.07
SAGGMMKIKITFADGTTKEIELPEDVTEVTITYDEKTGKVTITVRLKNGETKTITIPADKITKIEIESAGGS [r16_658_TrROS_Hall]	> 6	5.39 ± 0.7
SAGGMKIRLDNGKEIEINQSPGYMSIQIRPPDDGKKREYPFPMPDGENSMEDFVNEIANHGRITEIEPSAGG [r13_579_TrROS]	-0.249 ± 0.23	0.522 ± 0.075
SAGGSAGGMVTFDTPEELEALIEELLARHPRDVPVDVTIESEDSRYTIKVAPERVEEISESEGSSAGGSAGG [r6_289_JUSTAS]	< -1	-0.763 ± 0.47
SAGGSAGGMVTVELPGLPTPEEARARAEEVVAAIVAAGHPGEEVTLTVVYPGSGAAETFTVPLASAGGSAGG [r6_238_JUSTAS]	-0.328 ± 0.22	0.225 ± 0.059
SAGGSAGGSAGGMLVLIKTPKKPVLLSEEEVKSNPELLEKLKEEGFPIDGIEFLDKEKLSAGGSAGGSAGGS [r10_396_JUSTAS]	-0.451 ± 0.31	-0.185 ± 0.1
SKEILEAEVEEILKLLPESLKPDVPRELVFPGVKITVTKYEPVDKNKGGKKPTTVVTIELPEGPVTIPLPSA [r9_279_JUSTAS]	-0.531 ± 0.18	0.548 ± 0.034
SAGMTVEEVAAEIIASHPPSSTSVTLEVDVGPKPVRVTVEILPDPETGRPVPRVTVTDPNKNVTTEYVVSAG [r5_236_JUSTAS]	-0.632 ± 0.39	-0.173 ± 0.052
SAGGSAGGMNKIKVTTSVTTFEETVLAGNKTFTVTLLKKTTTITDPNSSKVTTITETKSPEELSSAGGSAGG [r6_752_JUSTAS]	-0.135 ± 0.27	0.294 ± 0.27
SAGGSAGGSAGPEIVLEGKPVELEVVEVGDKPVLIARFPDHYVVIDPEPDVIRLFSSEELSAGGSAGGSAGG [r11_9_TrMRF]	-0.449 ± 0.11	-0.0154 ± 0.018
SAGGSAGGSSMPLTVEELLASVGPDKTATVLVPPGTSIPANITPLGTEPEGGWRTFAIPASLVSAGGSAGGS [r12_356_JUSTAS]	-0.971 ± 0.25	-0.137 ± 0.12
SAGGSAGGSAGMTLEEIEELLKKEGIDPSTLGNEKIAEIIKKKNPNTTITSSPEGTGYISKSAGGSAGGSAG [r3_375_JUSTAS]	< -1	0.27 ± 0.18
SAGGSAGGSAGGSGSSIPIVVEEKPEVSEDPSRVVLTTKIILKDPNGNSIETITEVELKSAGGSAGGSAGGS [r4_75_JUSTAS]	< -1	-0.492 ± 0.066
SAGGSAGGSAKPLTVDEILKNLDFPPNMEIEDIEVDQDENEGKPVISIEMYSPGQPYRPTIVSAGGSAGGSA [r18_354_TrROS]	< -1	-0.151 ± 0.042
SAGSPIDLGEVEVEEKPVETDPATGLTTTETVITAPDGRPVFVKYTTKDPATGTTTVTETPVGVDPELTSAG [r5_200_JUSTAS]	< -1	-0.556 ± 0.096
SETVTIEVEIEVKLPDGSTYRVRLTVEFDKETGKITLKMTVEYNGKTYEVELSEEEIKALLDELLKKLGLSA [r9_1136_TrROS_Hall]	> 6	4.22 ± 0.29
SAGGSAGGSAGGSAVERIIKEMREKFPPGKEVEIPIEVRTDNGNYVPIEIEFRIPPDQPSAGGSAGGSAGGS [r10_11_TrROS]	< -1	-0.557 ± 0.4
SAGGSMVTETLSVEETVEPLPDGLVRVPVRTEIRVTRKDPTTGKWTTELRTEEVVLVVPASGLEAASAGGSA [r2_184_JUSTAS]	0.195 ± 0.053	0.804 ± 0.02
SAGGSAGGSAGGNKEVEIPIMIYWPDPNGKPNMHTVEIDMPNNDLPDIKDWAEDNPWTIMSAGGSAGGSAGG [r7_539_TrROS]	-0.532 ± 0.22	0.287 ± 0.05
SAGGSAGGSAGGIEELAKKYPNIKIVEVKTVKVTETNKDGKKTEKTKTEIKIYKDGEEISAGGSAGGSAGGS [r10_0_TrROS_Hall]	< -1	-0.0124 ± 0.2
SAGGWRMEIEFPGINPEELRKAIAEAPGNKDVDVDVERIPKDGSVKIEMHGNNPADRKRIQKAVKKAFSAGG [r13_580_TrROS]	< -1	-0.928 ± 0.47
SAGGSAGGSATIKIKVPPGEPYMIRIRWPDGKSHEHNVPPGEEITIPPDNFDGITPIEIQPYSAGGSAGGSA [r18_210_TrROS]	0.11 ± 0.56	0.288 ± 0.19
SAGGMYTLSEKTLPDGSKLLTVTRPDKPEEVFLPKEAENLPPETPVTTRGAGGEEVRPVAEILPPALLSAGG [r13_97_JUSTAS]	-0.215 ± 0.18	0.257 ± 0.11
SAGMSLKLEVPIDGHMIEVTVHPSPPRATAKYPEFDATAEATISEPGLINLTITDPKTGKPYPLDVTLPSAG [r14_656_JUSTAS]	0.152 ± 0.1	0.621 ± 0.023
SAGGSAGGSAGGTIRDAVKEGKPFKIRMRGKKGKTHTVTIRPDKPVKLPGISSIQVERDSAGGSAGGSAGGS [r10_700_TrROS]	-0.707 ± 0.8	-0.285 ± 0.27

Sequence	folding stability dG unfold [1] [kcal/mol]	folding stability dG unfold [2] [kcal/mol]
SPLTPEQIEELAKEIAQEFPNVKVKIYPNDEPIEIKAPGAEIEIWPPPGEFYIQIEFPGNGKPKQIPIPPSA [r9_1062_TrROS]	-0.583 ± 0.25	0.00765 ± 0.051
SAGGSAGGSAMKEYVVASRGYDPATGLYSLTIESSEGKKVKNVTFDDPSNPEKAINEAIAKESAGGSAGGSA [r18_479_JUSTAS]	-0.829 ± 0.35	-0.713 ± 0.34
SYRPITIQMPSPEDLKKLEEAFEDDGFENVNIHRDPPGWHTITITQKGPPEQLQDRIREAFDENGFQIQPSA [r9_1003_TrROS]	< -1	0.0855 ± 0.11
SAGGSAGGSAGGMKIVLKVPENNPEAEKEAKKLKEEPGLKEVEVEFIPKSLVPEEPVLLSAGGSAGGSAGGS [r10_1110_JUSTAS]	< -1	-0.334 ± 0.28
SAGGSAGGAEITIELTEDGTLRITVDGKKLEIRLEPAPPPVEVKTERVLDPDTDELTTRTETVLSAGGSAGG [r6_34_TrROS_Hall]	-0.548 ± 0.43	0.203 ± 0.19
SAGGSSIPRALLEAMPPDAELEFEDPSSNVRIKVTRLGPDRLEITTTVYPPGPDTPVSSETTTDPLASAGGS [r16_163_JUSTAS]	-0.124 ± 0.28	0.371 ± 0.11
SAGGSAGGSAGGVVKFPDDVLIERVETLPDGTVKIKVYKRIPGKGSPVEEIEFEDPGSSSAGGSAGGSAGGS [r10_934_JUSTAS]	< -1	0.235 ± 0.024
SMRLVPVPVRSADGRASVDEIRAAIREALPEGLRVDFGEEFIERALREAERRYGGRLRPDDFPILVPVLGSA [r9_197_TrMRF]	< -1	-0.209 ± 0.15
SAGMTITKTEEFPKGPGSVTRTTVTLPNGKVVVEETITLEDPSVTKTVTKTIEPADGTVLETTTTTVPASAG [r5_108_JUSTAS]	-0.418 ± 0.3	0.302 ± 0.16
SAGGSAGGSAGSSLPPDARYTTKVTVKTPFSKTLSLSEYQKLPPSEIKGIEIEKEVVPVESAGGSAGGSAGG [r11_899_JUSTAS]	-0.927 ± 0.92	-0.198 ± 0.44
SAGGSAGGSAGGTPFKAKDPKTDKVYLGEKDPVSGKVTITDPNTGNPIIVPGGEIEFIVSAGGSAGGSAGGS [r10_28_JUSTAS]	-0.282 ± 0.16	0.00952 ± 0.041
SAGGSIIIRGPSPDQAEEAARAFAKNFREQFPENPNMEIPVKVEYEDPENGQRQEYEAEIKIPYPDSAGGSA [r2_393_TrROS]	< -1	0.0648 ± 0.16
SMYRIEVVRDGKPIPREAVEAAAEAIERARGRPISPEALARELASVPNTVVTVEAYDEPGKPLGTLTFAESA [r9_1045_TrMRF]	-0.703 ± 0.37	-0.253 ± 0.17
SAGGMTTTVTVEKFPDGSVTEVTTLPNGIVLTTPLPYTKVVPVDPPDGPAVSWGPVTVTSTESVSSEASAGG [r13_236_JUSTAS]	0.0898 ± 0.26	0.393 ± 0.068
SAGGSAGGSAGSPIPVEVKVTTFGPGGVPREAELLTGDPAAFEKAIGKPLPDGSKVEVLLSAGGSAGGSAGG [r11_671_JUSTAS]	-0.955 ± 0.48	-0.129 ± 0.083
SAGGSAGGSAGGMITIEEDPNKDLKTVTVYVPEKPKWVTVDVKPSETIEEALAKAEELLKSAGGSAGGSAGG [r7_138_JUSTAS]	-0.514 ± 0.18	0.0308 ± 0.064
SAKIPAEEIAEEIAENFGFEPVEVDEIDPDEGKIIIRFPGWQIEVEVDPEDGEIEIEMEFYDPEDGKPFSAG [r14_270_TrROS]	-0.0386 ± 0.18	0.46 ± 0.045
SAGGSAGGSAGEEIIRAAKEAAKAGKKVRIVVPKGMSAEEIAKKLAEELNIEKVEVYELPSAGGSAGGSAGG [r11_524_TrROS_Hall]	-0.142 ± 0.11	0.332 ± 0.086
SAGGSAGGSAGGMPLNFSTVETEELPELGATVTTSTAPGYILTETRTPEGVEVQRYPALLSAGGSAGGSAGG [r7_280_JUSTAS]	0.108 ± 0.2	0.86 ± 0.068
MEFTITVEYDEETNELTVTITYPGYTIEIRIDPDGRIRVEVRMDPGMSEEERKRMQELAEELAKKLEEALKS [r1_468_TrROS_Hall]	> 6	4.33 ± 0.69
SAGGSAGGSAGKSPSESEVVITPETGVVEENGVKIKVTLTITTYSPSSTVTSTTKDPKLLSAGGSAGGSAGG [r11_551_JUSTAS]	-0.356 ± 0.15	-0.0836 ± 0.045
SAGGMPEGDFWVRIRIPVPKYEMERDPNDPNDYKMEPEWKPKEIWLPVKSPEALDEFRENGFEIEPFSAGGS [r8_482_TrROS]	-0.137 ± 0.16	0.251 ± 0.091
SFRIEPDPDGTVTVRIPKDFPNKPAEEIADYIQKAFGPGMKIDKDIKIEPDPENGWVEITVKVKLPPGAKSA [r9_1011_TrROS]	0.0899 ± 0.33	0.913 ± 0.16
SAGGSAKLEINIIIPGMPPERAKRKARNIAAELRKQGLPKENIKDVDIKVIVMPWRRDPDNKWKPMSAGGSA [r15_684_TrROS]	-0.0462 ± 0.12	0.506 ± 0.079
